Measurements reported in US20230295297A1 (Alector, published 2023).
Changes are numbered by the printed parent chain.

T1: recombinant human TREM2-DAP12 fusion protein expressed on cells (human)
T1 construct: also called HEKhT2; 293 cells expressing human TREM2; not shown: None of these limits is stated
T1 chain: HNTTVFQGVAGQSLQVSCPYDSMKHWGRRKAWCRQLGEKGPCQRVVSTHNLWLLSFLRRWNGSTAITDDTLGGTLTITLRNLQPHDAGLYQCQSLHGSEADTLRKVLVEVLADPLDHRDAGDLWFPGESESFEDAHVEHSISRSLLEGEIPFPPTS

T2: human TREM2 on primary cells (human, UniProt Q9NZC2 19-230)
T2 construct: also called TREM2 on hDC; hMAC
T2 sequence: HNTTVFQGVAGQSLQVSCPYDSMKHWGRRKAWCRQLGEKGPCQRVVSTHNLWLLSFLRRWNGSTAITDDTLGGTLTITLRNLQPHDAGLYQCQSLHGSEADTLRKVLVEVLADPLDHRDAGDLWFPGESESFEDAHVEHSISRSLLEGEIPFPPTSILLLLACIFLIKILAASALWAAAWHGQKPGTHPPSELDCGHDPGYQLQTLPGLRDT

T3: mouse TREM2 on cells (mouse, UniProt Q99NH8 19-227)
T3 construct: recombinant on BWZ cells (with DAP12) and native on mouse macrophages; also called BWZmT2; BWZ T2
T3 sequence: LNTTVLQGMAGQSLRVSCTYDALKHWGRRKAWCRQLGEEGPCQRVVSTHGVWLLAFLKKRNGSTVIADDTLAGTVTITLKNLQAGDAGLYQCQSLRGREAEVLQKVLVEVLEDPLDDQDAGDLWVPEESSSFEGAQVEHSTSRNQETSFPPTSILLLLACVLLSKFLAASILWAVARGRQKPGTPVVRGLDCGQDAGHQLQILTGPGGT

T4: E151A
T4 construct: also called hTREM2-Dap12 chimera with E151A; not shown: Transmembrane/cytoplasmic stretch and the Dap12 portion of the chimera
T4 chain: T1 chain with E133A

T5: D152A
T5 construct: also called hTREM2-Dap12 chimera with D152A; not shown: Transmembrane/cytoplasmic stretch and the Dap12 portion of the chimera
T5 chain: T1 chain with D134A

T6: H154A
T6 construct: also called hTREM2-Dap12 chimera with H154A; not shown: Transmembrane/cytoplasmic stretch and the Dap12 portion of the chimera
T6 chain: T1 chain with H136A

T7: K42A
T7 construct: also called hTREM2-Dap12 chimera with K42A; not shown: Transmembrane/cytoplasmic stretch and the Dap12 portion of the chimera
T7 chain: T1 chain with K24A

T8: G45A
T8 construct: also called hTREM2-Dap12 chimera with G45A; not shown: Transmembrane/cytoplasmic stretch and the Dap12 portion of the chimera
T8 chain: T1 chain with G27A

T9: R77A
T9 construct: also called hTREM2-Dap12 chimera with R77A; not shown: Transmembrane/cytoplasmic stretch and the Dap12 portion of the chimera
T9 chain: T1 chain with R59A

T10: H114A
T10 construct: also called hTREM2-Dap12 chimera with H114A; not shown: Transmembrane/cytoplasmic stretch and the Dap12 portion of the chimera
T10 chain: T1 chain with H96A

T11: E156A
T11 construct: also called hTREM2-Dap12 chimera with E156A; not shown: Transmembrane/cytoplasmic stretch and the Dap12 portion of the chimera
T11 chain: T1 chain with E138A

B1: 9F5 (antibody, IgG1, V domains shown)
VH: QVQLQQSGPELVKPGASLKISCKASGYAFSSSWMNWVKQRPGKGLEWIGRIYPGDGDTNYNGEFRVRATLTADTSSTTAYMQLSSLTSEDSAVYFCARLLRNQPGESYAMDYWGQGASVTVSS
VL: DVVMTQTPLSLPVSLGDQASISCRSSQSLVHSNGYTYLHWYLQKPGQSPKLLIYKVSNRFSGVPDRFSGSGSGTDFTLKISRVEADDLGVYFCSQSTRVPYTFGGGTKLEIK
notes: mIgG1; VH FR 169/184/202/216, HVR 60/78/97; also called mAb T2-9F5.1; 9F5 MAb
B2: 3A2 (antibody, IgG1, V domains shown)
VH: QVQLQQSGAELVKPGASVKMSCKTSGYPFSNFWITWVKQRPGQGLVWIGDIYPGSDNSNYNEKFKTKATLTVDTSSSTAYMHLSSLTSEDSAVYFCAREAYYTNPGFAYWGQGTLVTVST
VL: DVVMTQTPLSLPVSLGDQASISCRSSQTIIHSNGNTYLEWYLRKPGQSPKLLIYKVSNRFSGVPDRFSGSGSGTDFTLKISRVEAEDLGVYYCFQGSHVPYTFGGGTELEIK
notes: mIgG1; variable domains built FR1-HVR1-FR2-HVR2-FR3-HVR3-FR4
B3: 10A9 (antibody, IgG1, V domains shown)
VH: B2 VH with L11V, S58R, Y60F, K63R, T120A
VL: B2 VL with S61C
notes: mIgG1
B4: 6H2 (antibody, IgG2a, V domains shown)
VH: QVQLQESGPGLVQPSQSLSIICTVSAFSLTNYAVHWIRQSPGKGLEWLGVIWSGGSTAFNAAFISRLNISKDNSKSQVFFKMNSLQSDDTAIYYCATHYYRSTYAFSYWGQGTLVTVSA
VL: B2 VL with V3L, T28S, I30V, R43Q, Y101F, G105S, E108K
notes: mIgG2a
B5: 2H8 (antibody, IgG1, V domains shown)
VH: EVQLVESGGGLVQPKGSLKLSCAASGFSFNTYAMNWVRQAPGKGLEWIARIRSKSNNYATYYADSVKDRFTCSRDDSENMFYLQLSSLKTEDTAMYYCVRHGDGNLWYIDVWGTGTTVTVSS
VL: NVLTQSPALMSASPGEKVTMTCSASSSVSYMYWYQQKPRSSPKPWIYLTSILASGVPARFSGSGSGTSYSLTISSMEAEDAATYYCQQWSFNPYTFGGGTKLVIK
notes: mIgG1
B6: 7F8 (antibody, IgG1, V domains shown)
VH: B5 VH with F70I, S122T
VL: VLTQSPALMSASPGEKVTMTCSASSSVSYMYWYQQKPRSSPKPWIYLTSILASGVPARFSGSGSGTSYSLTINNMEAEDAATYYCQQWSFNPYTFGGGTKLVIK
notes: mIgG1
B7: 8A1 (antibody, IgG2a, V domains shown)
VH: EVQLQQSGAELVKPGASVKISCKASGYAFSNYWMSWVKQRPGKGLEWIGQIYPGDGDTKYNGKFEGKATLTADKSSSTAYMQLSSLTSEDSAVYFCSREKGADYYGSTYSAWFSYWGQGTLVTVSA
VL: DIQMTQSPASLSVSVGETVTITCRTSENVYSNLAWYQQKQGKSPQLLVYAATNLADGVPSRFSASGSATQFSLKINSLQSADFGSYYCHHFWGTPYTFGGGTKLEMN
notes: mIgG2a
B8: 9G1 (antibody, IgG1, V domains shown)
VH: QVQLQQSGAELVKPGASVKLSCKASGYIFTTYWIHWVKQRPGRGPEWIGRIDPNNGDTNYNEKFKTKATLTVDKPSSTADMQLSSLTSEDSAVYYCVMTGTDFDYWGQGTTLTVSS
VL: B1 VL with V3L, S25F, Y35N, K79R, R82G, D86E, Y101P
notes: mIgG1

Tests used:
[1] = target: T1, recombinant human TREM2-DAP12 fusion …; assay: KD cell binding
[2] = target: T2, human TREM2 on primary cells; assay: FACS, primary hDC
[3] = target: T1, recombinant human TREM2-DAP12 fusion …; assay: FACS, HEKhT2 cells
[4] = target: T2, human TREM2 on primary cells; assay: FACS, primary hMAC
mouse TREM2 on cells [5] = target: T3, mouse TREM2 on cells; assay: FACS on thioglycollate-induced macrophages of wild-type mice (mouse TREM2 only), gated CD11b+ F4/80+
E151A [6] = target: T4, E151A; assay: shotgun alanine scanning: immunofluorescence flow cytometry on HEK-293T cells expressing the mutant chimera
D152A [7] = target: T5, D152A; assay: as above
H154A [8] = target: T6, H154A; assay: as above
K42A = target: T7, K42A; assay: shotgun alanine scanning: immunofluorescence flow cytometry on HEK-293T cells expressing the mutant chimera; mean of duplicates, range in brackets
G45A = target: T8, G45A; assay: as above
R77A = target: T9, R77A; assay: as above
H114A = target: T10, H114A; assay: as above
E151A [9] = target: T4, E151A; assay: as above
D152A [10] = target: T5, D152A; assay: as above
H154A [11] = target: T6, H154A; assay: as above
E156A = target: T11, E156A; assay: as above
mouse TREM2 on cells [12] = target: T3, mouse TREM2 on cells; assay: KD cell binding

Row | Binder | Kd [1] [nM] | % Positive hDC [2] [%] | MFI HEKhT2 [3] [MFI] | % Positive hMAC [4] [%] | also measured
1 | B1 | 0.96 | 73 | 2910 | 26 | binding result (mouse TREM2 on cells [5]): no binding; binding result (E151A [6]): no binding; binding result (D152A [7]): no binding; binding result (H154A [8]): no binding; Binding Reactivity (% WT) (K42A): 131 % WT; Binding Reactivity (% WT) (G45A): 145 % WT; Binding Reactivity (% WT) (R77A): 124 % WT; Binding Reactivity (% WT) (H114A): 114 % WT; Binding Reactivity (% WT) (E151A [9]): 4.8 % WT; Binding Reactivity (% WT) (D152A [10]): 2.7 % WT; Binding Reactivity (% WT) (H154A [11]): 3 % WT; Binding Reactivity (% WT) (E156A): 17.7 % WT
2 | B2 | 4.98 | 77 | 7300 | 18 | –
3 | B3 | 4.24 | 96 | 11900 | 64 | binding result (mouse TREM2 on cells [5]): no binding
4 | B4 | 5.4 | 83.9 | 13500 | – | –
5 | B5 | – | – | – | – | Kd (mouse TREM2 on cells [12]): 6.86 nM
6 | B6 | – | – | – | – | Kd (mouse TREM2 on cells [12]): 1.78 nM
7 | B7 | 4.64 | 94 | 11000 | 34 | –
8 | B8 | 9.06 | 60 | 3080 | 20 | –
